Test results published in article doi:10.1101/2021.08.19.456998, “Structures of the Human SPAK and OSR1 Conserved C-Terminal (CCT) Domains” (bioRxiv, 2021).
Each block holds one binder with its values, some of them ahead of it. Where no end group is shown, it is not given here. The star is where a group is joined. Biotin = O=C1N[C@H]2[C@H](CS[C@H]2CCCCC(=O)*)N1

How the values were obtained:
Conditions in all cases: both partners purified
[1] = molecular target: T1, biotin-SPAK (uncleaved human SPAK CCT domain, residues 441-545, biotinylated on the AviTag) (human, biotin on the lysine of the AviTag (…)); assay: grating-coupled interferometry (Creoptix WAVE); traditional multicycle kinetics; biotin-SPAK or biotin-OSR immobilised on streptavidin chip, 18-mer peptide as analyte, 50 µM in 3-fold dilutions (six points); 25°C, HBS EP; one-to-one fit
T1 construct: STE20/SPS1-related proline/alanine-rich kinase (SPAK), human, conserved C-terminal (CCT) domain, residues 441-545; the TEV site was not cut in this form; also called hSPAK-CCT; source: E. coli BL21-CodonPlus (DE3)-RIL, purified (HisTrap, SEC), biotinylated with BirA; not shown: His6, N-terminal, kept; AviTag, N-terminal, kept

[2] = molecular target: T1, biotin-SPAK (uncleaved human SPAK CCT …); assay: grating-coupled interferometry (Creoptix WAVE); waveRAPID; biotin-SPAK or biotin-OSR immobilised on streptavidin chip (about 1000 pg/mm^2), 18-mer peptide as analyte at 5 µM; 25°C, HBS EP (10 mM HEPES pH 7.4, 150 mM NaCl, 3 mM EDTA, 0.005% Tween20); 1:1 kinetic model, global fit
[3] = molecular target: T2, biotin-OSR (uncleaved human OSR1 CCT domain, residues 423-527, biotinylated on the AviTag) (human, biotin on the lysine of the AviTag (…)); assay: as above
T2 construct: Oxidative Stress Responsive 1 (OSR1) kinase, human, conserved C-terminal (CCT) domain, residues 423-527; the TEV site was not cut in this form; also called hOSR1-CCT; hOSR-CCT; source: E. coli BL21-CodonPlus (DE3)-RIL, purified (HisTrap, SEC), biotinylated with BirA; not shown: His6, N-terminal, kept; AviTag, N-terminal, kept

[4] = molecular target: T3, Biotin-C6-SEEGKPQLVGRFQVTSSK (N-terminally biotinylated 18-mer RFQV peptide derived from WNK4) (human); assay: grating-coupled interferometry (Creoptix WAVE); traditional multicycle kinetics; biotin-C6-18-mer peptide captured on streptavidin chip, cleaved OSR1 as analyte, 25 µM in 1:3 dilutions (six points); 25°C, HBS EP
T3 construct: With No Lysine kinase 4 (WNK4), 18-mer with the RFQV motif; also called biotinylated 18-mer peptide; biotin 18-mer peptide; source: synthetic peptide, bought: GL Biochem, Shanghai Ltd
T3 peptide: {Biotin-C6}-SEEGKPQLVGRFQVTSSK

[5] = molecular target: T3, Biotin-C6-SEEGKPQLVGRFQVTSSK …; assay: grating-coupled interferometry (Creoptix WAVE); waveRAPID; biotin-C6-18-mer peptide captured on streptavidin chip (about 400 pg/mm^2), cleaved SPAK or OSR1 as analyte at 2 µM; 25°C, HBS EP; heterogeneous ligand model for SPAK

T2 sequence (chain, as listed by the source): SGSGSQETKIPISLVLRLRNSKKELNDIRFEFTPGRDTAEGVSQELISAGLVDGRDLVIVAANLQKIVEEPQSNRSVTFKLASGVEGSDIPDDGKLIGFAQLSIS

Kd [1]: 1160 nM | Kd [2]: 1100 nM | Kd [3]: 2500 nM
B1: 18-mer RFQV peptide derived from WNK4 (SEEGKPQLVGRFQVTSSK), unbiotinylated (peptide)
peptide: SEEGKPQLVGRFQVTSSK
notes: With No Lysine kinase 4 (WNK4), 18-mer with the RFQV motif; also called 18-mer peptide; RFQV 18-mer peptide; source: synthetic peptide, bought: GL Biochem, Shanghai Ltd

Kd [4]: 6600 nM | Kd [5]: 2100 nM
B2: cleaved OSR1 (human OSR1 CCT domain, residues 423-527, tags removed with TEV protease) (domain or fragment)
chain: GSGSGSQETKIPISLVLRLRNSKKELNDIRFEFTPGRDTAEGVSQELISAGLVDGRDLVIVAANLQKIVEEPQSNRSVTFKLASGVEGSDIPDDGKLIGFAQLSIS
notes: glycine of the TEV site (ENLYFQ/G) left after cleavage; OSR1, human, CCT domain, residues 423-527; also called cleaved hOSR1-CCT; hOSR1-CCT; source: E. coli BL21-CodonPlus (DE3)-RIL, purified (HisTrap, SEC, TEV cleavage, SEC in HBS EP); not shown: His6, N-terminal, cleaved; AviTag, N-terminal, cleaved
